This assay deals with T1, LRP6 (Homo sapiens, UniProt O75581).
T1 construct: made in house; host or cells: Tni insect cells (baculovirus, secreted)
T1 sequence (O75581 20-1253): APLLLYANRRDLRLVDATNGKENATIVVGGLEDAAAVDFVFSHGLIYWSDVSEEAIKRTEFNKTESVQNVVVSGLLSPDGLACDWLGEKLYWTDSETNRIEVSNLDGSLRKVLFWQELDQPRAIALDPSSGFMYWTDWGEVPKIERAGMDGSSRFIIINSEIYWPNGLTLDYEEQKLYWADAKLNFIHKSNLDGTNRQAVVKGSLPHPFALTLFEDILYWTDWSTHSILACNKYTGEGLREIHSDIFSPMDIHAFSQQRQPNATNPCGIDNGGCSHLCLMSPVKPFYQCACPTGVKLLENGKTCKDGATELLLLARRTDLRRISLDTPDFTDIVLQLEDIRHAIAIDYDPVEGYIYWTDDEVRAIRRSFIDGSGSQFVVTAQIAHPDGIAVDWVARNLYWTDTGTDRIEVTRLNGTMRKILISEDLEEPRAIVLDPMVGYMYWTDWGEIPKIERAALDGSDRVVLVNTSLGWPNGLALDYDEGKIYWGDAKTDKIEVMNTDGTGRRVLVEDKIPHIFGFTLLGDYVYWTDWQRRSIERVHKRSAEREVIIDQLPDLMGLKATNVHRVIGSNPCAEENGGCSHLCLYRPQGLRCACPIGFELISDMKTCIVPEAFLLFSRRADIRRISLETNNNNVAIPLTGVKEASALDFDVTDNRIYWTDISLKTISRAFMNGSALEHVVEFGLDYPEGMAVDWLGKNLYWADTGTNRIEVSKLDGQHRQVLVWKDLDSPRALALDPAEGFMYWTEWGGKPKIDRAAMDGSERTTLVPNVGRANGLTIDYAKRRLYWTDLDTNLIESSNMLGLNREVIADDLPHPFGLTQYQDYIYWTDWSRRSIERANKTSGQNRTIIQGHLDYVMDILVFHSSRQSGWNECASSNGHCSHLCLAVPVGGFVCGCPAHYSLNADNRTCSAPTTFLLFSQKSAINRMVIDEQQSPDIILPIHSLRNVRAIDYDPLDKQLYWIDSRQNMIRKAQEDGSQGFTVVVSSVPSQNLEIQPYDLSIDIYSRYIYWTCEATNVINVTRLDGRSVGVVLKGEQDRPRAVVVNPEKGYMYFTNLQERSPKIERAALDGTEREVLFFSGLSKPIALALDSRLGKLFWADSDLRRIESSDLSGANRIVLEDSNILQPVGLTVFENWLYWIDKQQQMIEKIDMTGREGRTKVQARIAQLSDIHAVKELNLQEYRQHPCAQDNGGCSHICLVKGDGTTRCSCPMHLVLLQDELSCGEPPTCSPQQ
The assay is described as follows: Biolayer interferometry binding to any LRP6 construct tested. As to the method: Binding kinetics were measured by biolayer interferometry using an Octet Red instrument (ForteBio) as previously described (11). Streptavidin (SA) biosensors were loaded with biotinylated hLRP6 in 50 mMTris, pH 8, 300 mM NaCl, 5% (v/v) glycerol, and 0.05% (w/v) Triton X-100. The loaded biosensors were washed in the same buffer before carrying out association and dissociation measurements for the indicated times. The Kd of each interaction was determined using steady state-analysis through the Octet Red software v6.3. Each reported value represents an average of three or more experiments at different concentrations, with a fitted experimental curve for which the square of the correlation coefficient (R^2) is above 0.96.
The interaction of the different Dkks and sclerostin with various domains of LRP6 was measured using a biolayer interferometry assay (11). Purified receptors contained individual β-propeller-EGF-like units (E1, E2, or E4), two β-propellers (E1E2 or E3E4), or four β-propellers (E1E4))—as follows:
Human LRP6: construct E1E4-amino acids A20-Q1253 of LPR6; construct E1E2-amino acids A20-E631 of LPR6; construct E3E4 amino acids E631-Q1253 of LPR6; construct E1-amino acids A20-D325 of LPR6; construct E2-amino acids […]-E631 of LPR6; construct E4-T933-Q1253. The individual LRP6 β-propeller E3 could not be expressed.
For orientation: In BLI a coated tip is dipped into the sample, and binding shifts an interference pattern.

Turning to “Dkk3: Dickkopf 3, carrier-free protein from R&D Systems”, the “binding to any LRP6 construct tested” value is listed as “failed to bind”.

The record behind these values is patent publication US20140235820A1, “METHODS AND COMPOSITIONS FOR MODULATING THE Wnt PATHWAY” (Genentech, Inc., priority 2010, published 2014).
